The target of test [1] is Flag-tagged nsp8 of SARS-CoV-2 (SARS-CoV-2) (UniProt P0DTD1). Description: co-IP.
In test [2] the target is Flag-tagged nsp7 of SARS-CoV-2 (SARS-CoV-2) (UniProt P0DTD1). Description: co-IP.

Consider “HA-tagged nsp12 T20E mutant (natural protein)”, for which the increase in co-precipitated complex against wild type in test [1] and in test [2] was 2 fold throughout.
Turning to “HA-tagged nsp12 T20A mutant (natural protein)”, the decrease in co-precipitated complex against wild type in test [1] and in test [2] was 33% throughout.

Values taken from PMC9793359.
